Experimental data as given in patent US12018066 (TRIAD NATIONAL SECURITY, dated 2024).

B1: G07 minibody (scFv-Fc) (Fc fusion)
chain: QSVLIQPPSASGTPGQRVTISCSGSNSNFGSNSVSWYQQRPGTAPKLLIEGNNQRPSGVPERFSGSKSGTSASLAISGLQSEDEAEYSCASWDDSLNAFVFGPGTKLTVLSGGSAITSYNVYYTKLSSSGTQVQLVQSGAEVKKPGESLKISCKGSGYSFTSYWIGWVRQMPGKGLEWMGIIYPGDSDIRYSPSFQGQVTISADKSFSSAYLQWSSLKASDTAMYYCARLGATGAFDIWGQGTTVTVSS
B2: D07 minibody (scFv-Fc) (Fc fusion)
chain: SYELTQPPSVSVAPGETARMTCGGNNIGTKGVHWYQQKPGQAPVLVVYDDSDRPSGIPERFSGSNAGNTATLTISRVEAGDEADYYCQVWDSRSDQYVFGTRTKLTVLSGGSTITSYNVYYTKLSSSGAQVTLKESGPVLVKPTETLTLTCTVSGFSLSNARMGVSWIRQPPGKALEWLAHIFSNGEKSYSTSLKSRLTISKDTSKSQVVLTMTNMDPVDTATYYCARTLDYYDSSGYLVGGAFDIWGQGTMVTVSS
B3: H03 minibody (scFv-Fc) (Fc fusion)
chain: SYELTQPPSVSVAPGQTARITCGGNNIGSKSVHWYQQKPGQAPVLVIYYDSDRPSGIPERFSGSNSGNTATLTISRVEAGDEADYYCQVWDSSSALYVFGTRTKVTVLSGGSTITSYNVYYTKLSSSGTQVQLVESGGGLVQPGRSLRLSCAASGFTFDDYAMHWVRQAPGKGLEWVSGISWNSGSIGYADSVKGRFTISRDNAKNSLYLQVNSLRAEDTAVYYCARELIVGTTSPQTDAFDIWGQGTMVTVSS
B4: H02 minibody (scFv-Fc) (Fc fusion)
chain: QSVVTQPPSVSAAPGQKVTISCSGSSSNIGNNYVSWYQQLPGTAPKLLIYRDTQRPSGVPDRFSGSKSGTSASLAISGLRSEDEADYYCATWDKSLSGPVFGGGTKVTVLSGGSTITSYNVYYTKLSSSGTQVQLQQSGPGLVKPSQTLSLTCAISGDSVSSNSAAWNWIRQSPSRGLEWLGRTYYRSKWYNDYAVSVKSRIIINPDTSKNQFSLQLNSVTPEDTAVYYCARQDNNPYYGLDVWGQGTTVTVSS
B5: R09 minibody (scFv-Fc) (Fc fusion)
chain: QPGLTQPPSVSVSPGQTASITCSGDKLGYKYVSWYQQKPGQSPVLVIYEDTKRPSGIPKRFSGSNSGNTATLTICGTQAVDEADYYCQAWDSSVVFGGGTKLTVLSGGSTITSYNVYDTKLSSSGTQVQLVQSGAEVKKPGASVKVSCKASGYTFTSYGISWVRQAPGQGLEWMGWISAYNGNTNYAQKFQGRVTMTTDTSTSTAYMELRSLRSDDTAVYYCARDMELRPPFDYWGQGTLVTVSS
B6: B10 minibody (scFv-Fc) (Fc fusion)
chain: QSVVTQPPSVSGAPGQRVTISCTGSSSNIGSRTVNWYQQLPGTAPKLLIYANNQRPSGVPDRFSGSKSGTSASLAISGLQSEDEADYYCAAWDDSLNGYVFGTGTKLTVLSGGSTITSYNVYYTKLSSSGTQVQLQQSGPGLVKPSQTLSLTCAISGDSVSSNSATWNWIRQSPSRGLEWLGRTYYGSKWHSDYAVSVKSRITINPDTSKNQISLHLNPVTPEDTAVYYCARGRSYAFDIWDQGTMVTVSS
B7: D04 minibody (scFv-Fc) (Fc fusion)
chain: SYVLTQPPSVSVAPGKTARITCGGNNIGWKSVHWYQQKPGQAPVLVVYNDNDRPSGVPERFSGSNSGNTATLTISRVVAGDEADYYCQVWDSSSDHVLFGGGTKLTVLSGGSTITSYNVYYTKLSSSGTQVQLVQSGAEVKKPGSSVKVSCKASGGTFSSYAISWVRQAPGQGLEWMGGIIPIFGTANYAQKFQGRVTITADESTSTAYMELSSLRSEDTAVYYCARASGRWLQFWHYYGMDVWGQGTTVTVS
B8: D11 minibody (scFv-Fc) (Fc fusion)
chain: SYELTQPPSVSVAPGQTARITCGGNNIGSKSVHWYQQKPGQAPVLVVYDDSDRPSGIPERFSGSNSGNTATLTISGTQAMDEADYYCQAWDSSTAYVFGSGTKLTVLSGGSTITSYNVYYTKLSSSGTQVQLEESGGGLVQPGGSLRLSCAASGFTFSNYAMSWVRQAPGKGLEWVSAISGSGGATFHADSVKGRFTISRDNSKNTLYLQMNSLRAEDTAVYYCARRVGYDSSGYYWSDAFDIWGQGTMVTVSS

The binders below were run against T1, SARS-CoV-2 spike protein receptor binding domain (RBD2) (SARS-CoV-2, UniProt P0DTC2 319-537) (assay: SPR).
In the case of B1, the Kd is reported as 63900 nM.

The binders below were run against T1, SARS-CoV-2 spike protein receptor … (assay: SPR, immobilized antibody, RBD injected, 1:1 fit).
B2 gave a Kd of 134 nM.
B3 gave a Kd of 117 nM.
Binder B4 has a Kd of 15.5 nM.
With B5 the Kd was 539 nM.
With B6 the Kd was 344 nM.
B7 gave a Kd of 124 nM.
Work on B8 yielded a Kd of 798 nM.
